# Experimental data reported in publication PMC3448610, “Characterization of Molecular Determinants of the Conformational Stability of Macrophage Migration Inhibitory Factor: Leucine 46 Hydrophobic Pocket” (PLoS ONE, 2012).
# Changes are numbered by the printed parent chain. In names and notes the source's numbering stands.
# B1: L46A human Macrophage Migration Inhibitory Factor (natural protein, UniProt P14174 1-115, looked up)
# chain: MPMFIVNTNVPRASVPDGFLSELTQQLAQATGKPPQYIAVHVVPDQAMAFGGSSEPCALCSLHSIGKIGGAQNRSYSKLLCGLLAERLRISPDRVYINYYDMNAANVGWNNSTFA
# notes: initiator methionine cleaved, measured mass 12303 g/mol; numbers count on: the mature protein starting at Pro-1 (without the initiator methionine); No tag is named; also called L46A huMIF; L46A MIF; source: more than 95% pure
# B2: L46F human Macrophage Migration Inhibitory Factor (natural protein, UniProt P14174 1-115, looked up)
# chain: B1 chain with A47F
# notes: initiator methionine cleaved, measured mass 12379 g/mol; numbers count on: the mature protein starting at Pro-1 (without the initiator methionine); No tag is named; also called L46F huMIF; L46F MIF; source: more than 95% pure
# B3: L46G human Macrophage Migration Inhibitory Factor (natural protein, UniProt P14174 1-115, looked up)
# chain: B1 chain with A47G
# notes: initiator methionine cleaved, measured mass 12289 g/mol; numbers count on: the mature protein starting at Pro-1 (without the initiator methionine); No tag is named; also called L46G huMIF; L46G MIF; source: more than 95% pure
# Target: the molecule itself
# Test: AUC; sedimentation velocity, 50,000 rpm, 20°C, PBS 1X pH 7.4, protein 5-50 µM (15 µM in Figure 3); c(s) analysis with SEDFIT; oligomeric state of the protein with itself
row,Protein,stoichiometry N
1,B1,3
2,B2,3
3,B3,3
